US20260001953A1 (TWIST BIOSCIENCE, published 2026)

T1: mouse CD117 (mouse, UniProt P05532)
T1 construct: antigen of the Carterra SPR kinetics; also called murine CD117
T1 sequence (receptor, looked up): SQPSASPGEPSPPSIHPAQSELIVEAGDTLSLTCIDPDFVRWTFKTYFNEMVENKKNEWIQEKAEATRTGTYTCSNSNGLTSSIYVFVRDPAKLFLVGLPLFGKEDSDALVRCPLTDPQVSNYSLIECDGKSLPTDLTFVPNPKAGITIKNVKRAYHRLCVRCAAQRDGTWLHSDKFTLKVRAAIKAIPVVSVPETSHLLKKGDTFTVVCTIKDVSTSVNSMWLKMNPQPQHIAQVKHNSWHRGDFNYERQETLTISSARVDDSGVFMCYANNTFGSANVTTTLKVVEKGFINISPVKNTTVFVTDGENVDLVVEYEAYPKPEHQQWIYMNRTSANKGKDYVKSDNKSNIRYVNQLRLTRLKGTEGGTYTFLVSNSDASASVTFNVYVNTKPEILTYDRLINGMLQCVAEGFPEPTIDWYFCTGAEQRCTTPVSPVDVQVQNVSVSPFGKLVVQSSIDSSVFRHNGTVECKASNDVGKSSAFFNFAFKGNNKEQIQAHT

B1: SIGLEC-8-20 (antibody, human IgG1, kappa, V domains shown)
VH: EVQLLESGGGLVQPGGSLRLSCAASGFTFSSFDMTWVRQAPGKGLEWVSSISGGGGSTYYADSVKGRFTISRDNSKNTLYLQMNSLRAEDTAVYYCAREDGSGSYSMDVWGQGTLVTVSS
VL: DIQMTQSPSSLSASVGDRVTITCRASQSIDNYLHWYQQKPGKAPKLLIYAASNLEGGVPSRFSGSGSGTDFTLTISSLQPEDFATYYCQQSYKTPVTFGGGTKVEIKR
notes: tested as expressed and purified mAb
B2: SIGLEC-8-52 (antibody, human IgG1, kappa, V domains shown)
VH: EVQLLESGGGLVQPGGSLRLSCAASGFTFRSYVMSWVRQAPGKGLEWVSSISLSGGSTYYADSVKGRFTISRDNSKNTLYLQMNSLRAEDTAVYYCAREESGKYLSLDHWGQGTLVTVSS
VL: DIQMTQSPSSLSASVGDRVTITCRASQSVSNFLNWYQQKPGKAPKLLIYAASNLEGGVPSRFSGSGSGTDFTLTISSLQPEDFATYYCQQTYSTPITFGGGTKVEIKR
notes: as for B1
B3: SIGLEC-8-4 (antibody, human IgG1, kappa, V domains shown)
VH: EVQLLESGGGLVQPGGSLRLSCAASGFSFSSDAMSWVRQAPGKGLEWVSGISGGGGSAYYADSVKGRFTISRDNSKNTLYLQMNSLRAEDTAVYYCAREGASNYAAFDIWGQGTLVTVSS
VL: DIQMTQSPSSLSASVEDRVTITCRAGQSITPYLNWYQQKPGKAPKLLIYATSSLHSGVPSRFSGSGSGTDFTLTISSLQPEDFATYYCQQSHSSPLTFGGGTKVEIKR
notes: as for B1
B4: SIGLEC-8-30 (antibody, human IgG1, kappa, V domains shown)
VH: EVQLLESGGGLVQPGGSLRLSCAASGFTFSHYALSWVRQAPGKGLEWVSIISGSGDTTYYADSVKGRFTISRDNSKNTLYLQMNSLRAEDTAVYYCAKATYFYDSSGYRRATYFDYWGQGTLVTVSS
VL: DIQMTQSPSSLSASVGDRVTITCRASQGISRHLNWYQQKPGKAPKLLIYAESTLQSGVPSRFSGSGSGTDFTLTISSLQPEDFATYYCQQTYTLPYTFGGGTKVEIKR
notes: as for B1
B5: CD117-8 (antibody, human IgG1, kappa, V domains shown)
VH: EVQLLESGGGLVQPGGSLRLSCAASGFTLTSYAMSWVRQAPGKGLEWVSTISGSGGYTYYADSVKGRFTISRDNSKNTLYLQMNSLRAEDTAVYYCARDSGYDRGLDYWGQGTLVTVSS
VL: DIQMTQSPSSLSASVGDRVTITCRASQSVRTYLNWYQQKPGKAPKLLIYDASTLQSGVPSRFSGSGSGTDFTLTISSLQPEDFATYYCQQSYNTPLAFGGGTKVEIKR
notes: detected with anti-human IgG in FACS
B6: SIGLEC-8-45 (antibody, human IgG1, kappa, V domains shown)
VH: EVQLLESGGGLVQPGGSLRLSCAASGFTFSSGAMSWVRQAPGKGLEWVSTISGSGASTYYADSVKGRFTISRDNSKNTLYLQMNSLRAEDTAVYYCAREGSSSWNAFDIWGQGTLVTVSS
VL: DIQMTQSPSSLSASVGDRVTITCRASQTIANYLNWYQQKPGKAPKLLIYAASNLEDGVPSRFSGSGSGTDFTLTISSLQPEDFATYYCQQSYNTPITFGGGTKVEIKR
notes: as for B1
B7: CD117-15 (antibody, human IgG1, kappa, V domains shown)
VH: EVQLLESGGGLVQPGGSLRLSCAASGFTFSDYPMSWVRQAPGKGLEWVSAIGGSGGDTYYADSVKGRFTISRDNSKNTLYLQMNSLRAEDTAVYYCARGAYDGEGFDYWGQGTLVTVSS
VL: DIQMTQSPSSLSASVGDRVTITCRTSQSIGSYLNWYQQKPGKAPKLLIYSASRLESGVPSRFSGSGSGTDFTLTISSLQPEDFATYYCQQTYNTPWTFGGGTKVEIKR
notes: as for B5
B8: CD117-4 (antibody, human IgG1, kappa, V domains shown)
VH: EVQLLESGGGLVQPGGSLRLSCAASGFTFSRSAMSWVRQAPGKGLEWVSAISAGGGNTYYADSVKGRFTISRDNSKNTLYLQMNSLRAEDTAVYYCAREQDLWSGTFDYWGQGTLVTVSS
VL: DIQMTQSPSSLSASVGDRVTITCRARQSISSYLNWYQQKPGKAPKLLIYDASSLRSGVPSRFSGSGSGTDFTLTISSLQPEDFATYYCQQSYKTPWTFGGGTKVEIKR
notes: as for B5
B9: SIGLEC-8-61 (antibody, human IgG1, kappa, V domains shown)
VH: EVQLLESGGGLVQPGGSLRLSCAASGFTFSSSAMTWVRQAPGKGLEWVTAISESGGSTYYADSVKGRFTISRDNSKNTLYLQMNSLRAEDTAVYYCAREGGDYYYGIDVWGQGTLVTVSS
VL: DIQMTQSPSSLSASVGDRVTITCRAGQSINRYLNWYQQKPGKAPKLLIYGASNLQSGVPSRFSGSGSGTDFTLTISSLQPEDFATYYCQQSFTTPLTFGGGTKVEIKR
notes: tested as expressed and purified mAb; also called SIGLEC-61
B10: SIGLEC-8-53 (antibody, human IgG1, kappa, V domains shown)
VH: EVQLLESGGGLVQPGGSLRLSCAASGFTFSSSAMAWVRQAPGKGLEWVSEISDSGGSTYYADSVKGRFTISRDNSKNTLYLQMNSLRAEDTAVYYCAREESGKYLSLDHWGQGTLVTVSS
VL: DIQMTQSPSSLSASVGDRVTITCRASQTIINYLNWYQQKPGKAPKLLIYGASNVQSGVPSRFSGSGSGTDFTLTISSLQPEDFATYYCQQSYVTPPTFGGGTKVEIKR
notes: as for B1
B11: CD117-3 (antibody, human IgG1, kappa, V domains shown)
VH: EVQLLESGGGLVQPGGSLRLSCAASGFSFSSYAMSWVRQAPGKGLEWVSAISGTGGNTYYADSVKGRFTISRDNSKNTLYLQMNSLRAEDTAVYYCARRNDFWSDAFDIWGQGTLVTVSS
VL: DIQMTQSPSSLSASVGDRVTITCRASQNIYTYLNWYQQKPGKAPKLLIYDASSLHSGVPSRFSGSGSGTDFTLTISSLQPEDFATYYCQQSSSTPYTFGGGTKVEIKR
notes: as for B5
B12: SIGLEC-8-31 (antibody, human IgG1, kappa, V domains shown)
VH: EVQLLESGGGLVQPGGSLRLSCAASGFTFSTDAMSWVRQAPGKGLEWVSTVSGSGASTYYADSVKGRFTISRDNSKNTLYLQMNSLRAEDTAVYYCAREDSGKYLSLDYWGQGTLVTVSS
VL: DIQMTQSPSSLSASVGDRVTITCRASQSITNYLNWYQQKPGKAPKLLIYASSTLESGVPSRFSGSGSGTDFTLTISSLQPEDFATYYCQQSYITPLTFGGGTKVEIKR
notes: as for B1
B13: SIGLEC-8-60 (antibody, human IgG1, kappa, V domains shown)
VH: EVQLLESGGGLVQPGGSLRLSCAASGFTLSNYAMTWVRQAPGKGLEWVSTVSGSGASTYYADSVKGRFTISRDNSKNTLYLQMNSLRAEDTAVYYCARENSGKYLSLDYWGQGTLVTVSS
VL: DIQMTQSPSSLSASVGDRVTITCRASQNIASYLNWYQQKPGKAPKLLIYATSDLQSGVPSRFSGSGSGTDFTLTISSLQPEDFATYYCQQTYNIPLTFGGGTKVEIKR
notes: as for B1

How the values were obtained:
[1] = target: T2, SIGLEC-8 transiently expressed on cells (UniProt Q9NYZ4 17-499, limits assumed); experiment: cell binding titration, transient SIGLEC-8 line
T2 construct: whole, on cells; Two cassettes are described (P2A mVenus and direct mVenus fusion); also called the transient line; pTT5-SIGLEC-8 P2A mVenus

[2] = target: T3, Sialic acid-binding immunoglobulin-like lectin 8 (SIGLEC-8), antigen of the Carterra SPR studies (UniProt Q9NYZ4 17-363, limits assumed); experiment: Carterra SPR kinetics, summary table
In short: (§1)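 On a Carterra instrument, surface plasmon resonance was used to measure how antibodies bind SIGLEC-8, with rate constants and dissociation constants as read-outs. The antibodies were taken from synthetic libraries by bead-based panning and clonal ELISA screening, then expressed and purified.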

[3] = target: T3, Sialic acid-binding immunoglobulin-like …; experiment: Carterra SPR
In short: as §1

[4] = target: T4, CD117 transiently expressed on Expi293 cells (UniProt P10721 26-976, limits assumed); experiment: FACS cell binding, Expi293 transiently expressing CD117
T4 construct: whole, on cells; Two cassettes are described (P2A mVenus and direct mVenus fusion); also called CD117 transient cells; the transient cell line
Method: (§2) The transient expression of CD117 was validated with a control antibody, Expi293 (FIGS. 17A-17B). Expi293, […], was transiently transfected with CD117 48-hours post-transfection. The secondary antibody used was APC Goat anti-human IgG (diluted 1:400). 100,000 cells per well were blocked with 1×PBS+0.5% BSA for 1 hour, stained with 100 μL of the primary antibody for 1 hour, and stained with the secondary antibody for one hour, all with 3× washes in between each staining.

[5] = target: T5, Cluster of differentiation 117 (CD117), antigen of epitope binning and ELISA (UniProt P10721 26-520, limits assumed); experiment: Carterra SPR, human CD117
T5 construct: also called tyrosine-protein kinase KIT; mast/stem cell growth factor receptor (SCFR)
Method: (§3) To further evaluate the antibodies discovered during the screens, 21 clones were selected for detailed characterization and were analyzed for target binding kinetics by a Carterra SPR instrument. The binding kinetics of the anti-CD117 antibodies for human CD117, cynomolgus monkey CD117, and murine CD117 are shown in FIG. 29A-29B.

[6] = target: T4, CD117 transiently expressed on Expi293 …; experiment: FACS, MFI expressing / parental cells
Method: as §2

mouse CD117 = target: T1, mouse CD117; experiment: Carterra SPR, mouse CD117
Method: as §3

T4 sequence (P10721 26-976 limits assumed): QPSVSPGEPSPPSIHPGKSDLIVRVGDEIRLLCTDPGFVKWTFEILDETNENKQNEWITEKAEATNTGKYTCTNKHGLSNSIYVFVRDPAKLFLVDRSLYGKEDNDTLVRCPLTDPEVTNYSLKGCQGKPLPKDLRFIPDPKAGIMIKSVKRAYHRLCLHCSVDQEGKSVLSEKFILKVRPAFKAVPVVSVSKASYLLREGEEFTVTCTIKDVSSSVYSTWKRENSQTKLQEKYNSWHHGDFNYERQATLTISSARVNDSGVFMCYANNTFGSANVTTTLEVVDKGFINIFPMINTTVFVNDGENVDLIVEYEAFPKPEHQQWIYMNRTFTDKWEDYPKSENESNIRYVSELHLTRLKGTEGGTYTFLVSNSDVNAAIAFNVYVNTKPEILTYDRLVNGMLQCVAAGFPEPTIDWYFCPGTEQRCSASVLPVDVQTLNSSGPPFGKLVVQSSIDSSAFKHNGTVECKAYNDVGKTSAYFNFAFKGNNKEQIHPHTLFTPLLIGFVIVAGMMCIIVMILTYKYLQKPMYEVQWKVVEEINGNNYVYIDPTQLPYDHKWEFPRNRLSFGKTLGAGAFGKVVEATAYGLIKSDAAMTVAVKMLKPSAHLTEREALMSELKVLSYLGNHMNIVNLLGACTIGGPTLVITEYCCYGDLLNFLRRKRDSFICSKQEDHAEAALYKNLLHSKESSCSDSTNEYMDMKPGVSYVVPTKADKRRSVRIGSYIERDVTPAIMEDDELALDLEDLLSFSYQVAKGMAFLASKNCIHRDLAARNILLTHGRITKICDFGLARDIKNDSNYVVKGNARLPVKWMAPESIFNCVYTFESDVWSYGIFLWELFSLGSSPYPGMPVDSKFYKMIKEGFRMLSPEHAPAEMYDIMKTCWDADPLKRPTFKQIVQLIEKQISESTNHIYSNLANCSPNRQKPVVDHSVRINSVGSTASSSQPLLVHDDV
T2 sequence (Q9NYZ4 17-499 limits assumed): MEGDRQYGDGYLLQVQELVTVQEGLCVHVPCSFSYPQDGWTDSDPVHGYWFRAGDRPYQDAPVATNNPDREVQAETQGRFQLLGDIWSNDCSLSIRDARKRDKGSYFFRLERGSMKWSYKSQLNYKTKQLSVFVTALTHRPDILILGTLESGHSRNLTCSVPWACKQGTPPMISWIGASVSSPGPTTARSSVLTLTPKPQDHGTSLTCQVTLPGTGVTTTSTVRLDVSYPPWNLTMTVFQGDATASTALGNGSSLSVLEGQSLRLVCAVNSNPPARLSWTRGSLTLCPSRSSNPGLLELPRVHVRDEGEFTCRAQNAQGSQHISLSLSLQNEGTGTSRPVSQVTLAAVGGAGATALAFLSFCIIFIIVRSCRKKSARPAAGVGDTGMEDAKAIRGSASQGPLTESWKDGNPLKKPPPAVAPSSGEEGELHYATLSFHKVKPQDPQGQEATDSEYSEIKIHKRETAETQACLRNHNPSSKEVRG
T3 sequence (Q9NYZ4 17-363 limits assumed): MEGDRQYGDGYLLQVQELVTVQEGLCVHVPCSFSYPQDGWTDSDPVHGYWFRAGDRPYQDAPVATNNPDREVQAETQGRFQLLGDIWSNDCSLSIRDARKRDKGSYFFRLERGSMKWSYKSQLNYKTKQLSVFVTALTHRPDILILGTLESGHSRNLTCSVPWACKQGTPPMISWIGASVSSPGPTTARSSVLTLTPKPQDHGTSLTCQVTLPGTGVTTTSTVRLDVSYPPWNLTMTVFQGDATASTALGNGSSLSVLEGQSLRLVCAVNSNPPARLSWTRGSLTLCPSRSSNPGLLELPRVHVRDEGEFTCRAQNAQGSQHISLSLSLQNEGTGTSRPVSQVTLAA
T5 sequence (P10721 26-520 limits assumed): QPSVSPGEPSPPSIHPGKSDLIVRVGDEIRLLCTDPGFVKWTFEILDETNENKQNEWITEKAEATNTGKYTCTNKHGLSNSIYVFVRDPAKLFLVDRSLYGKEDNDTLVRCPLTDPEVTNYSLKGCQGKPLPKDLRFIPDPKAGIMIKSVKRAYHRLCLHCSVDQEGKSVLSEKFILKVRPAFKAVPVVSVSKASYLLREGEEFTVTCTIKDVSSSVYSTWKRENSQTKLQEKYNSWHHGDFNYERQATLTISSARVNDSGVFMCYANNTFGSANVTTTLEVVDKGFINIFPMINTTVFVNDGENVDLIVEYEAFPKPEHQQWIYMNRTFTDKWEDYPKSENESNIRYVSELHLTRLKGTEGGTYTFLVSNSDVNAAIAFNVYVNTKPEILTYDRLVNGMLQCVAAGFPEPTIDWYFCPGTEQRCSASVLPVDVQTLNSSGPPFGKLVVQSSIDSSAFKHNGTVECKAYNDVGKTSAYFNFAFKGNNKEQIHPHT

| Binder | EC50 [1] | koff [2] | kon [2] | Kd [3] | EC50 [4] | binding result [5] | MFI Ratio [6] | binding result (mouse CD117) |
| --- | --- | --- | --- | --- | --- | --- | --- | --- |
| B1 | 0.972 nM | 3.4e-05 s⁻¹ | 445000 M⁻¹ s⁻¹ | 0.0764 nM | – | – | – | – |
| B2 | 4.07 nM | 6.22e-05 s⁻¹ | 84900 M⁻¹ s⁻¹ | 0.733 nM | – | – | – | – |
| B3 | 2.38 nM | 3.12e-05 s⁻¹ | 165000 M⁻¹ s⁻¹ | 0.189 nM | – | – | – | – |
| B4 | 1.5 nM | 0.000124 s⁻¹ | 145000 M⁻¹ s⁻¹ | 0.856 nM | – | – | – | – |
| B5 | – | – | – | – | 351 nM | no binding | 4.25 | – |
| B6 | 1.81 nM | 8.37e-05 s⁻¹ | 146000 M⁻¹ s⁻¹ | 0.574 nM | – | – | – | – |
| B7 | – | – | – | – | – | – | – | no binding |
| B8 | – | – | – | – | 3.42 nM | no binding | 10.5 | – |
| B9 | 0.494 nM | 3.67e-05 s⁻¹ | 390000 M⁻¹ s⁻¹ | 0.0942 nM | – | – | – | – |
| B10 | 0.69 nM | 4.78e-05 s⁻¹ | 259000 M⁻¹ s⁻¹ | 0.185 nM | – | – | – | – |
| B11 | – | – | – | – | – | – | – | no binding |
| B12 | 1.33 nM | 5.63e-05 s⁻¹ | 152000 M⁻¹ s⁻¹ | 0.37 nM | – | – | – | – |
| B13 | 0.653 nM | 0.000116 s⁻¹ | 129000 M⁻¹ s⁻¹ | 0.895 nM | – | – | – | – |
